The text below walks through data of CN116724055A (CANTARGIA S R L, dated 2023).

For one assay, the target named is T1, 小鼠IL1RAP (小家鼠 (Mus musculus), UniProt Q61730 21-367, limits assumed).
T1 construct: also called mIL1RAP
T1 sequence (looked up): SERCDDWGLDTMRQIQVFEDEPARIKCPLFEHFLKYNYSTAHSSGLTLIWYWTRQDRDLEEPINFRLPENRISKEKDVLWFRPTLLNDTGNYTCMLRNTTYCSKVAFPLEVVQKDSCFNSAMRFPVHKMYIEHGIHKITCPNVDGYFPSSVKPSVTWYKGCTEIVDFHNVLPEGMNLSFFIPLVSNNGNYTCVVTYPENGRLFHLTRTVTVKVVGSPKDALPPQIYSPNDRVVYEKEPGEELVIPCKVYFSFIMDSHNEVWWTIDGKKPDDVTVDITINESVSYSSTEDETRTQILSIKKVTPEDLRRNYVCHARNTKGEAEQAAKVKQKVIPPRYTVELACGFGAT
The assay is described as follows: ELISA on coated IL1RAP orthologs. On the technique in general: In an ELISA, binding on a coated surface is turned into a signal by an enzyme label.

The target of the next assay is T2, 大鼠IL1RAP (褐家鼠 (Rattus norvegicus), UniProt Q63621 21-367, limits assumed).
T2 construct: also called rnIL1RAP
T2 sequence (looked up): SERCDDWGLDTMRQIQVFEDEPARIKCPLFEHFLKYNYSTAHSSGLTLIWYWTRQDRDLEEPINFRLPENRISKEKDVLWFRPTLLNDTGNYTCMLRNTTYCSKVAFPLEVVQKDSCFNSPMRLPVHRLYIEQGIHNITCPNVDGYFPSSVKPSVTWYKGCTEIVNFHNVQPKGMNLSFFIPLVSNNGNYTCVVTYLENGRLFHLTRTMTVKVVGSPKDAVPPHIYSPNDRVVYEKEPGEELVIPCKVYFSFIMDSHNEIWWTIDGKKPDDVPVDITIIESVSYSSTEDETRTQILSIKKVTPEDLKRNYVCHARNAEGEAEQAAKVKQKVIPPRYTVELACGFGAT
The assay is described as follows: ELISA on coated IL1RAP orthologs.

Assay [1] has as its target T3, 重组mfIL1RAP aa21-367 (食蟹猴 (Macaca fascicularis), UniProt A0A2K5X5J5 21-367).
T3 construct: also called 食蟹猴(cyno)IL1RAP
T3 sequence: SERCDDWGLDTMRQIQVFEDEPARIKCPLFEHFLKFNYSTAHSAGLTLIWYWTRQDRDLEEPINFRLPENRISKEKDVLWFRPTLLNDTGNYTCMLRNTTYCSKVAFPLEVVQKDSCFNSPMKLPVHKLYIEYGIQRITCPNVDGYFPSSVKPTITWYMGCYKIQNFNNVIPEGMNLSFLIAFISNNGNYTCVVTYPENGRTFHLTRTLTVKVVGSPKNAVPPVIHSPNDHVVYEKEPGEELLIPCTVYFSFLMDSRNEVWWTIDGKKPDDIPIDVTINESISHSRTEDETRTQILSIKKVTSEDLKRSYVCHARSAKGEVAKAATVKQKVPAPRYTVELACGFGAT
Put plainly: binding ELISA, coated mfIL1RAP aa21-367.

The next assay addresses T4, 细胞膜上的人IL1RAP (人, UniProt Q9NPH3 21-570).
T4 sequence (looked up): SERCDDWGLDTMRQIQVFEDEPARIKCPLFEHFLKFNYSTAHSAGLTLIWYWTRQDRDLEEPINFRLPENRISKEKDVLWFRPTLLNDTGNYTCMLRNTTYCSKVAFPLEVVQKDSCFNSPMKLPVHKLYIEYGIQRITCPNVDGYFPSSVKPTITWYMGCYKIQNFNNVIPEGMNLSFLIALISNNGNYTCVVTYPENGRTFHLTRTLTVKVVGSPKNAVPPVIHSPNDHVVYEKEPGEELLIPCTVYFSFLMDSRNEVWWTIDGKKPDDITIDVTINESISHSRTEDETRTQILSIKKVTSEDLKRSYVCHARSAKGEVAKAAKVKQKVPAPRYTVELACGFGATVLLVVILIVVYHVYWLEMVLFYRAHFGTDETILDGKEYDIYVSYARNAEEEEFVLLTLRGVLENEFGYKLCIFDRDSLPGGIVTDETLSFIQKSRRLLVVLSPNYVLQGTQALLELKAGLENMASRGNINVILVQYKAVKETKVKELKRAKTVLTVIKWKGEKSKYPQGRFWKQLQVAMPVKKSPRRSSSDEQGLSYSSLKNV
The assay is described as follows: cell-based or functional assay.

For assay [2], the target named is T3, 重组mfIL1RAP aa21-367. Put plainly: ELISA on coated IL1RAP orthologs.

B1: h48D2 VH5.GL:VL4 (antibody, human IgG1, kappa, L234A L235A, V domains shown)
VH: QEQLEESGGGLVKPGGTLSLTCTVSGPSLSHFDITWIRQPPGKGLEWIGTISPGVSTYYASWAKSRVTISVDTSLNTVSLKLSSVTAADTATYFCARGGVGSSWKAFDLWGPGTLVTISS
VL: ELVMTQSPSSVSASVGDRVTITCQASESISTALAWYQQKPGKAPKLLIYKASTLPSGVPSRFSGSGSGTDFTLTINSLQPEDFATYYCQQGFSSGNVHNAFGGGTKVEIKR
notes: also called 48D2变体VH5.GL:VL4; 人源化和去免疫化48D2变体VH5.GL:VL4
On to B1, for which the binding result with 小鼠IL1RAP and in the assay with 大鼠IL1RAP was “no binding” in each case.

B2: h48D2 VH5:VL4 (antibody, human IgG1, kappa, L234A L235A, V domains shown)
VH: QEQLEESGGGLVKPGGTLSLTCTVSGPSLSHFDITWIRQAPGSGLEWIGTISPGVSTYYASWAKSRVTISVDTSLNTVSLKLSSVTAADTATYFCARGGVGSSWKAFDLWGPGTLVTISS
VL: ELVMTQSPSSVSASVGDRVTITCQASESISTALAWYQQKPGKAPKLLIYKASTLPSGVPSRFSGSGSGTDFTLTINSLQPEDFATYYCQQGFSSGNVHNAFGGGTKVEIKR
notes: also called 人源化48D2变体VH5:VL4
For B2, the binding result with 重组mfIL1RAP aa21-367 [1] is given as “binds”.

B3: h48D2 VH5:VL5 (antibody, human IgG1, kappa, L234A L235A)
heavy: not shown
light: APVLTQSPATLEASVGDRVTITCQASESISTALAWYQQKPGQPPKLLIYKASTLPSGVPSRFSGSGSGTEFTLTISDLESDDAATYYCQQGFSSGNVHNAFGGGTEVVVKRTVAAPSVFIFPPSDEQLKSGTASVVCLLNNFYPREAKVQWKVDNALQSGNSQESVTEQDSKDSTYSLSSTLTLSKADYEKHKVYACEVTHQGLSSPVTKSFNRGEC
B3: in the assay with 重组mfIL1RAP aa21-367 [1], the binding result is “binds”.

B4: h48D2 VH5.GL:VL5.GL (antibody, human IgG1, kappa, L234A L235A)
heavy: not shown
light: DIQMTQSPSTLSASVGDRVTITCQASESISTALAWYQQKPGQPPKLLIYKASTLPSGVPSRFSGSGSGTEFTLTISDLESDDAATYYCQQGFSSGNVHNAFGGGTEVVVKRTVAAPSVFIFPPSDEQLKSGTASVVCLLNNFYPREAKVQWKVDNALQSGNSQESVTEQDSKDSTYSLSSTLTLSKADYEKHKVYACEVTHQGLSSPVTKSFNRGEC
notes: humanised and de-immunised variant
Take B4: the binding result in the assay with 小鼠IL1RAP and in the assay with 大鼠IL1RAP was “no binding” throughout.

B5: 嵌合48D2 (antibody, V domains shown)
VH: QEQLEESGGGLVKPGGSLTLTCTVSGPSLSHFDITWVRQAPGSGLEWIGTISPGVSTYYASWAKSRSTITSNTNLNTVTLKMTSLTAADTATYFCARGGVGSSWKAFDLWGPGTLVTISS
VL: APVLTQTPASVEVAVGGTVTIKCQASESISTALAWYQQKPGQPPKLLIYKASTLPSGVSSRFKGSGSGTEFALTISDLECDDAATYYCQQGFSSGNVHNAFGGGTEVVVK
notes: chimeric rabbit/human IgG1; also called ch48D2; 48D2嵌合(ch)兔/人抗人IL1RAP
Regarding B5, in the assay with 细胞膜上的人IL1RAP, the “IC50, inhibition of IL-1α signalling, HEK-Blue assay (SEAP, OD 620nM)” value was 1.92 nM; the “IC50, inhibition of IL-1β signalling, HEK-Blue assay (SEAP, OD 620nM)” value stood at 0.7 nM; the “IC50, inhibition of IL-33 signalling, HEK-Blue assay (SEAP, OD 620nM)” value came to 2.92 nM; the “IC50, inhibition of IL-36α signalling, HEK-Blue assay (SEAP, OD 620nM)” value was determined as 0.0083 nM. Besides, in the assay with 细胞膜上的人IL1RAP, the “IC50, inhibition of IL-36β signalling, HEK-Blue assay (SEAP, OD 620nM)” value amounted to 0.0081 nM and the “IC50, inhibition of IL-36γ signalling, HEK-Blue assay (SEAP, OD 620nM)” value was 0.0111 nM. Further, the binding result with 小鼠IL1RAP is “no binding (tested: 4000ng/ml)”. Further, the binding result with 大鼠IL1RAP is “no binding (tested: 4000ng/ml)”. Also, in the assay with 重组mfIL1RAP aa21-367 [2], the binding result was “binds”.
